Results on 1 molecule are retold here after publication PMC5123862, “Characterization of human translesion DNA synthesis across a UV-induced DNA lesion” (eLife, 2016).

Assay [1] concerns the target T1, Cy5-labeled PCNA (human PCNA site-specifically labeled with Cy5 at amino acid residue 107) (human, UniProt P12004 1-261, Cy5 at amino acid residue 107). Description: FRET or BRET; holoenzyme assembly: RFC (100 nM), Cy5-PCNA (100 nM) and forked Cy3-P/T DNA (100 nM, biotin/Neutravidin) pre-incubated with 1 mM ATP, titrated with unlabeled pol η; FRET between DNA and PCNA (I670/I570); one-site binding model; room temperature; ionic strength 200 mM. The settings on record: both partners purified. A general note: BRET reads energy transfer from a luciferase to a nearby fluorophore.

The target in assay [2] is T1, Cy5-labeled PCNA (human PCNA …). Description: FRET or BRET; competitive inhibition: pre-assembled Cy3-Pol η•Cy5-PCNA complex (200 nM Cy3-Pol η, 20 nM Cy5-PCNA) titrated with unlabeled competitor (PCNA, (Ub)3-PCNA or pol η, 0-5 μM); dose-response model, Ki from IC50 by the Munson-Rodbard solution; room temperature; replication assay buffer, ionic strength 200 mM. To be noted: both partners purified.

T1 sequence (P12004 whole entry N107C): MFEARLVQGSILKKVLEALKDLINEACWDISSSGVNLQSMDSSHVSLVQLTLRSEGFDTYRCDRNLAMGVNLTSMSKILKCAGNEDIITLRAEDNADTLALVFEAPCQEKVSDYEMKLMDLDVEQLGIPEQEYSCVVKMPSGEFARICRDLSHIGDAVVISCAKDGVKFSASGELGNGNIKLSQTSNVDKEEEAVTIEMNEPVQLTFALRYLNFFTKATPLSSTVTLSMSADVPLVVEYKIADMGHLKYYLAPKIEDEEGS

B1: Pol η (human DNA polymerase eta, full length, wild type, unlabeled) (enzyme, UniProt Q9Y253 1-713, looked up)
chain: MATGQDRVVALVDMDCFFVQVEQRQNPHLRNKPCAVVQYKSWKGGGIIAVSYEARAFGVTRSMWADDAKKLCPDLLLAQVRESRGKANLTKYREASVEVMEIMSRFAVIERASIDEAYVDLTSAVQERLQKLQGQPISADLLPSTYIEGLPQGPTTAEETVQKEGMRKQGLFQWLDSLQIDNLTSPDLQLTVGAVIVEEMRAAIERETGFQCSAGISHNKVLAKLACGLNKPNRQTLVSHGSVPQLFSQMPIRKIRSLGGKLGASVIEILGIEYMGELTQFTESQLQSHFGEKNGSWLYAMCRGIEHDPVKPRQLPKTIGCSKNFPGKTALATREQVQWWLLQLAQELEERLTKDRNDNDRVATQLVVSIRVQGDKRLSSLRRCCALTRYDAHKMSHDAFTVIKNCNTSGIQTEWSPPLTMLFLCATKFSASAPSSSTDITSFLSSDPSSLPKVPVTSSEAKTQGSGPAVTATKKATTSLESFFQKAAERQKVKEASLSSLTAPTQAPMSNSPSKPSLPFQTSQSTGTEPFFKQKSLLLKQKQLNNSSVSSPQQNPWSNCKALPNSLPTEYPGCVPVCEGVSKLEESSKATPAEMDLAHNSQSMHASSASKSVLEVTQKATPNPSLLAAEDQVPCEKCGSLVPVWDMPEHMDYHFALELQKSFLQPHSSNPQVVSAVSHQGKRNPKSPLACTNKRPRPEGMQTLESFFKPLTH
notes: human DNA polymerase eta (pol η), single subunit; N-terminal catalytic core residues 1-475, C-terminal portion residues 476-713; also called unlabeled pol η; source: recombinant, purified from the pET21A-hPol η expression vector (modified protocol of Li et al., 2013)
What is called Ki is the dissociation constant of the complex between target and ligand, obtained from inhibition or displacement. Read a low Ki as a stronger hold on the target. Regarding B1, the “KD for Cy5-PCNA loaded on forked Cy3-P/T DNA (pol η holoenzyme formation)” value in assay [1] came to 28 ± 5.38 nM. In assay [2], this molecule had a Ki of 112 ± 15.5 nM.
